Experimental findings from the RNAGym collection of RNA variant scans (doi:10.1073/pnas.2313332121) are described below.

B1: TPR t1 (parent)
chain: GACCAAUCUGCCCUCAGAGCUCGAGAACAUCUUCGGAUGCAGAGGAGGCAGGCUUCGGUGGCGCGAUAGCGCCAACGUCCUCAACCUCCAAUGCAUCCCACCACAUGAUGAUGCCUGAAGAGCCUUGGUUUUUUG

The variants in this series derive from B1. The experiment in a line: polymerase ribozyme fitness, log enrichment relative to wild type (log ratio); higher = more active; in vitro selection for triplet polymerase activity. Put shortly:
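Mutant libraries of both subunits of a heterodimeric triplet polymerase ribozyme were PCR-built, transcribed, and selected once in triplicate, with frozen incubation at −7 °C and capture of gel-excised extended constructs on streptavidin beads before RT-PCR. Illumina sequencing of input and output libraries was filtered to genotypes with ≥10 input reads and ≥1 read per output. Fitness is the logarithm of genotype enrichment over wild-type enrichment, using inverse-variance-weighted replicate averages. The logarithm is base 2.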
Regarding C8A C12U A16U C40A C62U U87A, the “polymerase ribozyme fitness (log ratio)” value was -1.51.

Consider U7G C53G A90G, for which the “polymerase ribozyme fitness (log ratio)” value is 0.0166. As for U7G C72A A105U U125G, the figure is -2.26; as for U7G A118G, 0.686. As for U7C G71U U112A U133A, the figure is 1.1; as for C8A C12A C34U G39C G61U C85A, -7.04; as for U7G C13A A37C G52A G69U U92A A105U, -4.57. As for U7C G42C C72A C88U C115U, the figure is -1.49; as for C8A A43C, -1.76; as for U7G C70U C86U U92A, -3.6. As to U7C C98U U112A, the “polymerase ribozyme fitness (log ratio)” value is -1.84. As for C8A C53U C114A, the figure is 0.0648; as for U7G G39A G58A G69C C97U, -1.38. To U7G C20U C53U A68C U112A belongs -6.37; to C8A A29U, -1.13; to U7G G42C G71A C89G, -2.37. Consider C8A A16G C56A C73A, for which the “polymerase ribozyme fitness (log ratio)” value was -0.741. To U7C U14A A46U C64U belongs -2.69. To U7C C13U A105U belongs -1.79; to C8A C12G G23U G71U C86U G120C, -5.74. As for U7G G10C C72G C82A, the figure is -0.707; as for U7G G45C G135U, -0.606; as for U7C C101G, -1.98. Regarding U7C C101A, the “polymerase ribozyme fitness (log ratio)” value is -0.57. Take C8A A29U A90C: the “polymerase ribozyme fitness (log ratio)” value is -2.87. To U7G C101G A121C belongs -0.603; to C8A C34A A37U C104U, -1.95. As for U7G G69U C76G A95U, the figure is -1.74; as for C8A C20U A105G U112C G113A, -0.707; as for C8A C34A G42U, -4.61. Take C8A C13G A46U: the “polymerase ribozyme fitness (log ratio)” value was -1.07.

Consider U7G C79A C99U, for which the “polymerase ribozyme fitness (log ratio)” value was -5.33. Regarding U7C U32C U106A G113U, the “polymerase ribozyme fitness (log ratio)” value is -3.53. To C8A A37G C62G C99U G122A belongs -6.04; to U7G C12A C15A C49A U112A, -0.0165.

For U7G A41C C114G, the “polymerase ribozyme fitness (log ratio)” value was -0.902. As to C8A C20U A37G, the “polymerase ribozyme fitness (log ratio)” value is -0.63. To U7G G110C belongs -3.83. To U7G C11U A18C G45U C53A G57U C72U belongs -3.58; to U7G C12U C20A C72U, -1.43; to U7G U116G, -1.53.

As to C8A C15G A29U, the “polymerase ribozyme fitness (log ratio)” value is -2.66. With U7G C70U A83U U131A, the “polymerase ribozyme fitness (log ratio)” value stood at 0.0577. To C8A A50C C97G belongs -4.72; to U7G C88G, -0.456. Turning to C8A A43U G71C, the “polymerase ribozyme fitness (log ratio)” value was -2.95. For U7C G48U A91U G113U G117A, the “polymerase ribozyme fitness (log ratio)” value is -7.92. To U7G C40U G69C C99U belongs -4.48; to C8A C13A A27G, -4.58. Consider U7C G17A, for which the “polymerase ribozyme fitness (log ratio)” value is -1.12.

As for U7G A16C U55G C88U A95U, the “polymerase ribozyme fitness (log ratio)” value was -1.79. As for U7G A50G, the figure is 0.715; as for U7G C53U C88G C104U G113C U130G, -2.37; as for U7G C115U, -1.47. To U7G A41G A74U U106A U130C belongs 0.791; to U7G G45C C72G C82A C98A, -5.33; to U7G G93U G113A, -1.85. As for U7G C8U G61A A90U A121C, the figure is 0.312; as for U7C G36U G47C G48C, -2.23. On to C8A C15A A29U G42U C72G C114U, for which the “polymerase ribozyme fitness (log ratio)” value was -4.6. To U7G C53G belongs -0.551. Take U7G G61U C82G A91C U112C: the “polymerase ribozyme fitness (log ratio)” value was 0.65. To U7G C20U A27U G47C G113A belongs -4.53. To C8A C11U A121U belongs 2.14; to U7G C64U, 0.622. As for U7C G42A C76U C101U G120C C123A, the figure is -3. Consider C8A C49U C73G, for which the “polymerase ribozyme fitness (log ratio)” value is -1.1. Regarding C8A A29U U55G, the “polymerase ribozyme fitness (log ratio)” value was -1.42. C8A A24G C28A A84C A121U: the “polymerase ribozyme fitness (log ratio)” value was -3.25. For C8A C49A C86U G93U C94U C123A, the “polymerase ribozyme fitness (log ratio)” value is -0.367. C8A A43G C70U: the “polymerase ribozyme fitness (log ratio)” value was -2.74. On to C8A C56A, for which the “polymerase ribozyme fitness (log ratio)” value came out at 0.505.

For the variant U7C G17C A121G, the “polymerase ribozyme fitness (log ratio)” value was -1.82. To U7G U54C G58A U92C belongs -0.551; to C8A C12A U78G, -0.297. For the variant U7C C34A G35U C56U C94A G110C, the “polymerase ribozyme fitness (log ratio)” value is -7.29. As for U7G U106G G117U, the figure is -3.33; as for C8A A37C U78G A100C C101A U106G, -5.27; as for C8A A18C, -1.93. To U7C C73A C101U belongs 0.14; to U7C U9C, 0.297; to U7G G44A G63C U92A U125A, -4.07. With U7G G36U C80U U92G C123U, the “polymerase ribozyme fitness (log ratio)” value was -4.24. As for U7C C13U G47U C85A A111U, the figure is -5.01; as for U7G G52U G57C C102A A111C, -2.69; as for U7C C20G, -4.91. In the case of U7G C28A G57U G110C, the “polymerase ribozyme fitness (log ratio)” value is -1.2. To C8A C34U C53U C62G U109A belongs -6.27; to U7G C11G U33A A90G C101A, -6.24. In the case of C8A A18G U32A G61A C123A, the “polymerase ribozyme fitness (log ratio)” value is -2.56. As for U7G G10A C15G G17A A43C C53G C97U, the figure is -4.35. U7C G69U C80A A83U G128C: the “polymerase ribozyme fitness (log ratio)” value was -5.37. For the variant U7G A41U C62U U132C, the “polymerase ribozyme fitness (log ratio)” value was -0.941. In the case of C8A C49U A74C U78C C85A A91U C94U, the “polymerase ribozyme fitness (log ratio)” value was -3.74.

Regarding U7G C12G C49A G69U, the “polymerase ribozyme fitness (log ratio)” value stood at 1.21.

Consider U7G G60C, for which the “polymerase ribozyme fitness (log ratio)” value was -0.367. As for U7C C49A G61U A75U U96A, the figure is -0.699. Consider C8A A74C G120U, for which the “polymerase ribozyme fitness (log ratio)” value is 2.1. To U7G G117C belongs -1.81; to U7G C12A C101G U116C, -2.39; to U7G G69C A100U, -2.07. U7G U21C U59G G63A U116G C124G U131A: the “polymerase ribozyme fitness (log ratio)” value was -5.19.

In the case of C8A C13A C49G C124G, the “polymerase ribozyme fitness (log ratio)” value was found to be 1.1. To C8A C13U C20A C40A C49A A111G G117A U130C belongs -5.75. With U7C G17A A84U, the “polymerase ribozyme fitness (log ratio)” value was -2.39. To C8A C13U U55G G93A belongs -0.498; to U7G C70A U87A A121G, 1.36; to U7G G120U, 0.729. Turning to C8A C12A C34U C56G G71A G77A, the “polymerase ribozyme fitness (log ratio)” value was -4.02. To C8A C49U A100U G120A belongs 0.731. As for U7G U38C G45U C97U U133G, the figure is -2.84. As to U7C U14A C22U G47U C56G G60A G120U, the “polymerase ribozyme fitness (log ratio)” value is -7.5. For C8A A68G C114A, the “polymerase ribozyme fitness (log ratio)” value was -4.66. As for U7G G10U G42U A46C U54A G57A C101U C114U, the figure is -4.29; as for C8A C62A, -0.709.

On to U7C G23U A29G G60U G117A G128U, for which the “polymerase ribozyme fitness (log ratio)” value was -6.24. As for U7C C53U G71A U92G C114U, the figure is -2.79; as for U7G C20A G39A C49G A121G, -2.45.

On to U7G U14G C94A, for which the “polymerase ribozyme fitness (log ratio)” value was -0.903.

Consider U7G G65U C72U C73U U112G, for which the “polymerase ribozyme fitness (log ratio)” value was -6.23. To U7G G71U belongs 0.698; to U7G G52A C85A U87G, -1.55; to U7G G17C G44C G77U C94A, -6. With U7C G17U C31U A95C C123U, the “polymerase ribozyme fitness (log ratio)” value was -6.24. For the variant U7G G113A, the “polymerase ribozyme fitness (log ratio)” value was -0.761.

Consider U7G A111C U112A C123G, for which the “polymerase ribozyme fitness (log ratio)” value is -0.393. With C8A C40G C88A A111C, the “polymerase ribozyme fitness (log ratio)” value is -1.02. For the variant U7G G10A G45U U96G G117U, the “polymerase ribozyme fitness (log ratio)” value is -2.43. To C8A A27C C28U belongs -4.62. To U7G G39U C49U belongs -0.696; to C8A C15A A41C C49A G58U G63U, -3.45. As for U7G G45C C88A C115A, the “polymerase ribozyme fitness (log ratio)” value stood at 2.03. Turning to U7G G69C, the “polymerase ribozyme fitness (log ratio)” value was -0.478. As for U7G G69A, the figure is -2.34. As for U7C U14G A74C, the figure is -1.29. To C8A C53A C82A A108U belongs -5.69; to U7G C73G C89A C104U A119U, -2.52; to U7G U14G C34G C72U, -5.84. As for C8A C12U C86G C104A, the “polymerase ribozyme fitness (log ratio)” value is -1.31. On to U7G C40G A50U, for which the “polymerase ribozyme fitness (log ratio)” value was -0.282.

In the case of U7C U21C G61U A83G G120A, the “polymerase ribozyme fitness (log ratio)” value is -0.41. As for U7G C15U C28G U32A A41U G63U C89A U116C, the figure is -4.52; as for U7C U14A U32A C53G G63C G120A, -4.32. As for U7G A68U, the figure is -6.53; as for C8A C12A C34U C56G G77A, -2.77. To U7G C8U C15U G17A A50G belongs -3.01. Take C8A A41U G57A C104A: the “polymerase ribozyme fitness (log ratio)” value was -5.75. To U7G C12A U32A C73U G113A G120U belongs -4.58. As for U7G C12A G36U G77U, the figure is -0.735. As for C8A C53A U92A A121U, the figure is -1.12; as for C8A A75G G117A A121U, 1.31. As to U7G A74U A118U, the “polymerase ribozyme fitness (log ratio)” value came out at 0.595. Turning to U7G G52C A90C U130A, the “polymerase ribozyme fitness (log ratio)” value was -1.64. To U7C G58A C70U U78C U116C U131G belongs -1.13. With U7G C20U C115U, the “polymerase ribozyme fitness (log ratio)” value was -2.32. As for U7C G52U C98U C124A, the “polymerase ribozyme fitness (log ratio)” value is -0.108. To U7G G57A C94A C99U A121C belongs -5.61.

Regarding U7G A26G C34U G113A, the “polymerase ribozyme fitness (log ratio)” value was -4.39. Turning to U7C C15A A46U G48U U130C, the “polymerase ribozyme fitness (log ratio)” value is -2.63. C8A A74U C104A C124G: the “polymerase ribozyme fitness (log ratio)” value is -0.357. As for C8A A74U C115U A118U C124U, the “polymerase ribozyme fitness (log ratio)” value was -0.848. With U7G C22G G47C G60U A84U, the “polymerase ribozyme fitness (log ratio)” value is -5.01. As for U7C G10A U14A C53G C56G A84U G117U, the figure is -6.36; as for U7G G42A G71A, -2.58. As for C8A C40U C62A A90C, the figure is -3.39; as for C8A A43C A46U C86U U96A, -3.85; as for U7C G10C G60C C102U U112C, -2.68.
